Article PMC3272482
Values joined by “and” are separate entries in the source; they are usually repeats but may differ in a detail not shown here. Identical values can stand only once. Like-named read-outs stand apart in the source and are kept apart here.

Legend:
Assay in all cases: cryo-EM structure
[1] = molecular target: Escherichia coli DegQ, protease deficient S187A mutant (Escherichia coli) (UniProt P39099)
[2] = molecular target: Escherichia coli DegQ, protease deficient S187A mutant (Escherichia coli) (UniProt P39099); remark: listed apart in the source
[3] = molecular target: Escherichia coli DegQ, protease deficient S187A mutant (Escherichia coli) (UniProt P39099); remark: listed apart in the source

## Escherichia coli DegQ, protease deficient S187A mutant (from UniProt P39099 28-455) (enzyme)
[1]
  stoichiometry N: 24 protomers and 12 protomers
[2]
  stoichiometry N: 12 protomers
[3]
  stoichiometry N: 12 protomers
